Data: patent US20220194999A1 (Janssen / Centocor, published 2022)

Target: T1, HLA-A*02:01 class I complex (conditional p*HLA*02:01, biotinylated heavy chain with beta2-microglobulin) (human, biotinylated heavy chain)
T1 construct: UV-labile peptide p* is cleaved and exchanged for the test peptide; also called HLA 2.1
Assay: UV peptide exchange, HLA class I ELISA, % of Pos peptide;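 also: Streptavidin-captured HLA complexes after exchange detected via HRP anti-human B2M antibody, absorbance read, colour scales with intact complex, normalized to exchange control peptide as 100%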
Text: The HLA class I ELISA is an enzyme immunoassay based on the detection of beta2-microglobulin (B2M) of (peptide-stabilized) HLA class I complexes. To this end streptavidin is bound onto polystyrene microtiter wells. After washing and blocking, HLA complex present in exchange reaction mixtures or ELISA controls is captured by the streptavidin on the microtiter plate via its biotinylated heavy chain. Non-bound material is removed by washing. Subsequently, horseradish peroxidase (HRP)-conjugated antibody to human B2M is added. […] In the latter case B2M is removed during the washing step. After removal of non-bound HRP conjugate by washing, a substrate solution is added to the wells. A colored product is formed in proportion to the amount of intact HLA complex present in the samples. After the reaction has been terminated by the addition of a stop solution, absorbance is measured in a microtiter plate reader. The absorbance is normalized to the absorbance of an exchange control peptide (represents 100%). Also, suboptimal HLA binding of peptides with a moderate to low affinity for HLA class I molecules can be detected by this ELISA technique
Coating wells of two NUNC MaxiSorp™ 96-well ELISA plates: only the contents of one coating buffer capsule were dissolved in 100 mL of distilled water (0.05 M carbonate-bicarbonate buffer, pH 9.6 at 25° C.). 46 μL of Streptavidin stock solution were added to 23 mL coating buffer. 100 μL of the Streptavidin stock solution were added to all wells. Each microtiter plate was covered with an adhesive seal and incubated overnight at room temperature (18-25° C.).

Row | Binder | Average % [%] | Exch I (%) | Exch II (%)
1 | SLTCTYFPV (also called M212) [TP53_S127F6 mimic peptide SLTCTYFPV] | 95.5 | 93.7 | 97.2
2 | SLTCTYFPL (also called M214) [TP53_S127F8 mimic peptide SLTCTYFPL] | 70.8 | 69.9 | 71.6
